Source: patent US20240294593A1 (Genentech, published 2024)

Experiments:
[1] = target: T1, human PD-1-His (human, UniProt Q15116 25-167, limits assumed); test: Octet (BLI), bivalent IgG1 mAb; legend calls the constant apparent (KDapp)
T1 construct: Antigen of the Octet assays; not shown: His tag

[2] = target: T1, human PD-1-His; test: Octet (BLI), bivalent IgG1 mAb
[3] = target: T1, human PD-1-His; test: Octet

T1 sequence (Q15116 25-167 limits assumed): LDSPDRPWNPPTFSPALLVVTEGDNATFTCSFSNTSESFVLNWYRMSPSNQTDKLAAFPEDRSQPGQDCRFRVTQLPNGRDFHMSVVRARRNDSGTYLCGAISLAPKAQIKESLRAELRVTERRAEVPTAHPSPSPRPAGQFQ

Row | Kd [1] | koff [2] | kon [2] | Kd [3] | koff [3] | kon [3] | Binder
1 | – | – | – | 37 nM | 0.00615 s⁻¹ | 166000 M⁻¹ s⁻¹ | H1_L1.132 (antibody, V domains shown, also called VL-Y100Q; Kabat 94) VH: EVQLVESGGGLVQPGGSLRLSCAASGFTFSSFGMHWVRQAPGKGLEWVSYISSGSSIIYYADSVKGRFTISRDNAKNSLYLQMNSLRAEDTAVYYCARGGRLVWSPDYWGQGTLVTVSS VL: DIVMTQSPDSLAVSLGERATINCKSSQSLLNSGNQKNYLTWYQQKPGQPPKLLIYWASTRESGVPDRFTGSGSGTDFTLTISSLQAEDVAVYYCQNDYSQPFTFGSGTKLEIKR
2 | – | – | – | 91.3 nM | 0.0153 s⁻¹ | 168000 M⁻¹ s⁻¹ | H1_L1.134 (antibody, V domains shown, also called VL-Y100K; Kabat 94) VH: EVQLVESGGGLVQPGGSLRLSCAASGFTFSSFGMHWVRQAPGKGLEWVSYISSGSSIIYYADSVKGRFTISRDNAKNSLYLQMNSLRAEDTAVYYCARGGRLVWSPDYWGQGTLVTVSS VL: DIVMTQSPDSLAVSLGERATINCKSSQSLLNSGNQKNYLTWYQQKPGQPPKLLIYWASTRESGVPDRFTGSGSGTDFTLTISSLQAEDVAVYYCQNDYSKPFTFGSGTKLEIKR
3 | 2.13 nM | 0.000278 s⁻¹ | 131000 M⁻¹ s⁻¹ | – | – | – | mAb C[PD1]_H1.176_L1.140 (bivalent IgG1) (antibody, V domains shown, Bivalent IgG1 format with E233P/L234V/L235A/G236_/S267K) VH: EVQLVESGGGLVQPGGSLRLSCAASGFTFSSLGMHWVRQAPGKGLEWVSYISSGSSIIYYADSVKGRFTISRDNAKNSLYLQMNSLRAEDTAVYYCARGGRLVFSPDYWGQGTLVTVSS VL: DIVMTQSPDSLAVSLGERATINCKSSQSLLHSGNQYNYLTWYQQKPGQPPKLLIYWASTRESGVPDRFTGSGSGTDFTLTISSLQAEDVAVYYCQNDYTYPFTFGSGTKLEIK
4 | – | – | – | 9.44 nM | 0.001 s⁻¹ | 106000 M⁻¹ s⁻¹ | H1_L1.129 (antibody, human IgG1, kappa, V domains shown, also called VL-Y100W; Kabat 94) VH: EVQLVESGGGLVQPGGSLRLSCAASGFTFSSFGMHWVRQAPGKGLEWVSYISSGSSIIYYADSVKGRFTISRDNAKNSLYLQMNSLRAEDTAVYYCARGGRLVWSPDYWGQGTLVTVSS VL: DIVMTQSPDSLAVSLGERATINCKSSQSLLNSGNQKNYLTWYQQKPGQPPKLLIYWASTRESGVPDRFTGSGSGTDFTLTISSLQAEDVAVYYCQNDYSWPFTFGSGTKLEIKR

Second part, the binder before the results:

Row | Binder | Kd [1] | koff [2] | kon [2] | Kd [3] | koff [3] | kon [3]
5 | H1.178_L1.140 (XENP32424) (antibody, V domains shown, VH-F34L/S55G/R109F/W112F, VL-N31H/K36Y/S99T (Xencor #); Kabat positions VH-32/52A/97/100, VL-27D/30/93; also called mAb C[PD-1]_H1.178_L1.140; copies: 2 + 2) VH: EVQLVESGGGLVQPGGSLRLSCAASGFTFSSLGMHWVRQAPGKGLEWVSYISGGSSIIYYADSVKGRFTISRDNAKNSLYLQMNSLRAEDTAVYYCARGGFLVFSPDYWGQGTLVTVSS VL: DIVMTQSPDSLAVSLGERATINCKSSQSLLHSGNQYNYLTWYQQKPGQPPKLLIYWASTRESGVPDRFTGSGSGTDFTLTISSLQAEDVAVYYCQNDYTYPFTFGSGTKLEIKR | 0.986 nM | 0.000182 s⁻¹ | 184000 M⁻¹ s⁻¹ | – | – | –
6 | H1.182_L1.140 (XENP32428) (antibody, V domains shown, VH-F34L/S55G/R109L/W112F, VL-N31H/K36Y/S99T (Xencor #); Kabat positions VH-32/52A/97/100, VL-27D/30/93; also called mAb C[PD-1]_H1.182_L1.140; copies: 2 + 2) VH: EVQLVESGGGLVQPGGSLRLSCAASGFTFSSLGMHWVRQAPGKGLEWVSYISGGSSIIYYADSVKGRFTISRDNAKNSLYLQMNSLRAEDTAVYYCARGGLLVFSPDYWGQGTLVTVSS VL: DIVMTQSPDSLAVSLGERATINCKSSQSLLHSGNQYNYLTWYQQKPGQPPKLLIYWASTRESGVPDRFTGSGSGTDFTLTISSLQAEDVAVYYCQNDYTYPFTFGSGTKLEIKR | 0.943 nM | 0.000176 s⁻¹ | 187000 M⁻¹ s⁻¹ | – | – | –
7 | H1.184_L1.140 (XENP32430) (antibody, V domains shown, VH-F34L/S55G/R109D/W112F, VL-N31H/K36Y/S99T (Xencor #); Kabat positions VH-32/52A/97/100, VL-27D/30/93; also called mAb C[PD-1]_H1.184_L1.140; copies: 2 + 2) VH: EVQLVESGGGLVQPGGSLRLSCAASGFTFSSLGMHWVRQAPGKGLEWVSYISGGSSIIYYADSVKGRFTISRDNAKNSLYLQMNSLRAEDTAVYYCARGGDLVFSPDYWGQGTLVTVSS VL: DIVMTQSPDSLAVSLGERATINCKSSQSLLHSGNQYNYLTWYQQKPGQPPKLLIYWASTRESGVPDRFTGSGSGTDFTLTISSLQAEDVAVYYCQNDYTYPFTFGSGTKLEIKR | 0.798 nM | 0.000188 s⁻¹ | 236000 M⁻¹ s⁻¹ | – | – | –
8 | H1.188_L1.140 (XENP32434) (antibody, V domains shown, VH-F34L/S55G/R109T/W112F, VL-N31H/K36Y/S99T (Xencor #); Kabat positions VH-32/52A/97/100, VL-27D/30/93; also called mAb C[PD-1]_H1.188_L1.140) VH: EVQLVESGGGLVQPGGSLRLSCAASGFTFSSLGMHWVRQAPGKGLEWVSYISGGSSIIYYADSVKGRFTISRDNAKNSLYLQMNSLRAEDTAVYYCARGGTLVFSPDYWGQGTLVTVSS VL: DIVMTQSPDSLAVSLGERATINCKSSQSLLHSGNQYNYLTWYQQKPGQPPKLLIYWASTRESGVPDRFTGSGSGTDFTLTISSLQAEDVAVYYCQNDYTYPFTFGSGTKLEIKR | 0.981 nM | 0.000177 s⁻¹ | 181000 M⁻¹ s⁻¹ | – | – | –
9 | H1.185_L1.140 (XENP32431) (antibody, V domains shown, VH-F34L/S55G/R109H/W112F, VL-N31H/K36Y/S99T (Xencor #); Kabat positions VH-32/52A/97/100, VL-27D/30/93; also called mAb C[PD-1]_H1.185_L1.140; copies: 2 + 2) VH: EVQLVESGGGLVQPGGSLRLSCAASGFTFSSLGMHWVRQAPGKGLEWVSYISGGSSIIYYADSVKGRFTISRDNAKNSLYLQMNSLRAEDTAVYYCARGGHLVFSPDYWGQGTLVTVSS VL: DIVMTQSPDSLAVSLGERATINCKSSQSLLHSGNQYNYLTWYQQKPGQPPKLLIYWASTRESGVPDRFTGSGSGTDFTLTISSLQAEDVAVYYCQNDYTYPFTFGSGTKLEIKR | 1.06 nM | 0.000169 s⁻¹ | 160000 M⁻¹ s⁻¹ | – | – | –
